The supplement of paper PMC7877785
± gives the uncertainty stated by the source.

Assay: self-splicing fitness, log relative to wild type (ln ratio); higher = more splicing; Tetrahymena group I intron in knt gene, E. coli kanamycin selection, DiMSum; sequences stand for … in CUCUCU…GGAGGGAAAAGUUAUCAGGCAUGCACCUGGUAGCUAGUCUUUAAACCAAUAGAUUGCAUCGGUUUAAAAGGCAAGACCGUCAAAUUGCGGGAAAGGGGUCAACAGCCGUUCAGUACCAAGUCUCAGGGGAAACUUUGAGAUGGCCUUGCAAAGGGUAUGGUAAUAAGCUGACGGACAUGGUCCUAACCACGCAGCCAAGUCCUAAGUCAACAGAUCUUCUGUUGAUAUGGAUGCAGUUCACAGACUAAAUGUCGGUCGGGGAAGAUGUAUUCUUCUCAUAAGAUAUAGUCGGACCUCUCCUUAAUGGGAGCUAGCGGAUGAAGUGAUGCAACACUGGAGCCGCUGGGAACUAAUUUGUAUGCGAAAGUAUAUUGAUUAGUUUUGGAGUACUCGUGGUCG
In short: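 Colonies from six replicate transformations of E. coli BL21(DE3) were pooled and amplicon-sequenced on an Illumina HiSeq 2500. The library placed an intron with all eight P1ex-region nucleotides randomised inside the knt kanamycin-resistance gene on pET-22b(+), and cells grew overnight at 37°C or 30°C on LB agar with or without 25 μg/mL kanamycin (plus 100 μg/mL carbenicillin, 50 μM IPTG, 0.2% rhamnose). Fitness is the DiMSum error-weighted combination of wild-type-normalised replicate fold changes, kanamycin versus none.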

Row | Sequence | self-splicing fitness (ln) (30 °C) | self-splicing fitness (ln) (37 °C)
1 | CGUAAGCAAUAUUACGACCU | -1.97 ± 0.17 | -0.549 ± 0.16
2 | CGUAAGCAAUAUUACGACGA | -1.28 ± 0.21 | -1.69 ± 0.24
3 | CGUAAGCAAUAUUACGAGUG | -2.51 ± 0.13 | -0.853 ± 0.1
4 | CGUAAGCAAUAUUACGAUAG | -1.72 ± 0.093 | -0.661 ± 0.11
5 | CGUAAGCAAUAUUACGAUCU | -2.36 ± 0.15 | -0.243 ± 0.11
6 | CGUAAGCAAUAUUACGCAAA |  | -1.48 ± 0.34
7 | CGUAAGCAAUAUUACGCCUA |  | -2.18 ± 0.27
8 | CGUAAGCAAUAUUACGCCUG | -1.21 ± 0.11 | -0.643 ± 0.12
9 | CGUAAGCAAUAUUACGCGCG | -2.79 ± 0.16 | -1.71 ± 0.23
10 | CGUAAGCAAUAUUACGCGGA | -3.23 ± 0.19 | -1.84 ± 0.16
11 | CGUAAGCAAUAUUACGCUUG | -3.54 ± 0.18 | -0.367 ± 0.14
12 | CGUAAGCAAUAUUACGGACC | -0.744 ± 0.11 | -0.0128 ± 0.14
13 | CGUAAGCAAUAUUACGGAGG | -2.16 ± 0.14 | -1.57 ± 0.17
14 | CGUAAGCAAUAUUACGGCAA | -2.37 ± 0.25 | -1.68 ± 0.28
15 | CGUAAGCAAUAUUACGGGAC | -2.9 ± 0.29 | -2.47 ± 0.41
16 | CGUAAGCAAUAUUACGGGCG | -2.87 ± 0.22 | -1.12 ± 0.14
17 | CGUAAGCAAUAUUACGGGGC | -3.43 ± 0.26 | -2.35 ± 0.23
18 | CGUAAGCAAUAUUACGGGGU | -3.79 ± 0.18 | -3.36 ± 0.25
19 | CGUAAGCAAUAUUACGGUUU | -3.8 ± 0.2 | -2.71 ± 0.17
20 | CGUAAGCAAUAUUACGUACG | -3.57 ± 0.25 | -1.59 ± 0.23
21 | CGUAAGCAAUAUUACGUAGA | -4.43 ± 0.3 | -3.25 ± 0.29
22 | CGUAAGCAAUAUUACGUCCA | -2.61 ± 0.17 | -1.25 ± 0.17
23 | CGUAAGCAAUAUUACGUCUU | -3.7 ± 0.22 | -1.37 ± 0.14
24 | CGUAAGCAAUAUUACGUGAC | -3.04 ± 0.15 | -2.33 ± 0.18

Row | Sequence | self-splicing fitness (ln) (30 °C) | self-splicing fitness (ln) (37 °C)
25 | CGUAAGCAAUAUUACGUUAG | -1.34 ± 0.072 | -0.964 ± 0.081
26 | CGUAAGCAAUAUUACGUUUA | -1.69 ± 0.18 | -1.41 ± 0.18
27 | CGUCAGCAAUAUUACGAACG | -2.55 ± 0.17 | -1.32 ± 0.18
28 | CGUCAGCAAUAUUACGACAA | -0.159 ± 0.14 | 0.0303 ± 0.14
29 | CGUCAGCAAUAUUACGACUG | -0.935 ± 0.11 | 0.699 ± 0.13
30 | CGUCAGCAAUAUUACGAGAC | -2.95 ± 0.38 | -1.9 ± 0.32
31 | CGUCAGCAAUAUUACGAUAG | -0.505 ± 0.054 | -0.11 ± 0.074
32 | CGUCAGCAAUAUUACGAUCG | -1.74 ± 0.093 | -1.61 ± 0.11
33 | CGUCAGCAAUAUUACGAUGU | -1.73 ± 0.11 | -1.53 ± 0.098
34 | CGUCAGCAAUAUUACGCACC | -1.51 ± 0.1 | -0.192 ± 0.13
35 | CGUCAGCAAUAUUACGCAUC | -2.47 ± 0.4 | -2.89 ± 0.4
36 | CGUCAGCAAUAUUACGCGCC | -1.58 ± 0.16 | -0.529 ± 0.29
37 | CGUCAGCAAUAUUACGCUCC | -1.3 ± 0.15 | -0.786 ± 0.22
38 | CGUCAGCAAUAUUACGGAGU | -3.45 ± 0.17 | -2.55 ± 0.18
39 | CGUCAGCAAUAUUACGGCAC | -1.8 ± 0.12 | -0.799 ± 0.14
40 | CGUCAGCAAUAUUACGGCCA | -0.937 ± 0.083 | 0.106 ± 0.097
41 | CGUCAGCAAUAUUACGGCCU | -0.913 ± 0.17 | -1.79 ± 0.29
42 | CGUCAGCAAUAUUACGGCGU | -4.74 ± 0.34 | -0.685 ± 0.19
43 | CGUCAGCAAUAUUACGGCUA | -0.938 ± 0.11 | -0.751 ± 0.11
44 | CGUCAGCAAUAUUACGGGAU | -4.7 ± 0.39 | -2.66 ± 0.2
45 | CGUCAGCAAUAUUACGGGCU | -1.31 ± 0.078 | -0.668 ± 0.082
46 | CGUCAGCAAUAUUACGGGGU | -3.29 ± 0.11 | -2.33 ± 0.14
47 | CGUCAGCAAUAUUACGGGUC | -4.23 ± 0.39 | -2.73 ± 0.23
